Numbered stars: 1 amine (or outer) side, 2 acyl side, 3 side chain; on linkers, the order of the positions; unused ones are H or OH. Bridge positions count the residues as written; N and C are the ends. Ends that are not written are not given here. Phenylene(1,4-NHCOCH2)2 = O=C(C[*:1])Nc1ccc(NC(=O)C[*:2])cc1
Tests used:
CHIP = molecular target: T1, CHIP (Homo sapiens, UniProt Q9UNE7); experiment: Naive Library Presenter Screening (phage, NGS), CHIP; assay type: binding; conditions: for interaction data, BLANK: Blank = Media only
T1 construct: N-term truncated CHIP (also known as STUB1, Uniprot ID: Q9UNE7, residues 23-303); made in house; host or cells: E. coli BL21 CodonPlus
T1 sequence (Q9UNE7 23-303): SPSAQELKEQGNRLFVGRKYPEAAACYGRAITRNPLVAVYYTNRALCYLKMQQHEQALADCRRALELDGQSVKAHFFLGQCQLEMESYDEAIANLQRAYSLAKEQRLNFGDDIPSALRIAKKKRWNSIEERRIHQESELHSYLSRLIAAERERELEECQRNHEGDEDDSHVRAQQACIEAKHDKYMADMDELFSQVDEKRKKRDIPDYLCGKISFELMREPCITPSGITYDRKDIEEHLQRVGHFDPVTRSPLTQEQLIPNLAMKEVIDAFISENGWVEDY
Description: To conduct phage library screening, previously described procedures were utilized in accordance with the present disclosure.
Next-generation sequencing was performed as described in accordance with the present disclosure.
Hit ID and Clustering is performed according to a described procedure in accordance with the present disclosure.

RNF31 UBA domain = molecular target: T2, RNF31 UBA domain (Homo sapiens, UniProt Q96EP0); experiment: Phage Library Screening with NGS, RNF31 UBA domain; assay type: binding; conditions: for Phage library screen NGS readout, BLANK: cluster C46; for phage screen NGS read-out at Target Concentration 10 / phage screen NGS read-out at Target Concentration 30 / phage screen NGS read-out at Target Concentration 100 / phage screen NGS read-out at Target Concentration 300: no competitor
T2 construct: RNF31 UBA domain protein (residues 480-639) with N-terminal Thioredoxin-TEV-6×his-yBBr-3C tags; Thioredoxin (N, cleaved yes); made in house; host or cells: E. coli BL21 (DE3) pLysS
T2 sequence (Q96EP0 480-639): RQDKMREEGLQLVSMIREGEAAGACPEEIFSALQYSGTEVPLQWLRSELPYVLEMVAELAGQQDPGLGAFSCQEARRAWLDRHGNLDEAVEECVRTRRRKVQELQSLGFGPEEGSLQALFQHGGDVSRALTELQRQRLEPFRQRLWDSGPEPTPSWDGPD

[1] = CHIP clusters (C83, C84), first column
[2] = CHIP clusters (C83, C84), second column
[3] = CHIP clusters (C83, C84), target concentration 10 nM
[4] = CHIP clusters (C83, C84), target concentration 30 nM
[5] = CHIP clusters (C83, C84), target concentration 100 nM
[6] = CHIP clusters (C83, C84), target concentration 300 nM
[7] = CHIP clusters (C83, C84), target concentration 1000 nM, first column
[8] = CHIP clusters (C83, C84), target concentration 1000 nM, second column
[9] = CHIP target concentration 10 nM
[10] = CHIP target concentration 30 nM
[11] = CHIP target concentration 100 nM
[12] = CHIP target concentration 300 nM
[13] = CHIP target concentration 1000 nM, first column
[14] = CHIP target concentration 1000 nM, second column

Row | Sequence | interaction data, BLANK (CHIP; [1]) | interaction data, BLANK (CHIP; [2]) | interaction data at Target Concentration 10 (CHIP; [3]) | interaction data at Target Concentration 30 (CHIP; [4]) | interaction data at Target Concentration 100 (CHIP; [5]) | interaction data at Target Concentration 300 (CHIP; [6]) | interaction data at Target Concentration 1000 (CHIP; [7]) | interaction data at Target Concentration 1000 (CHIP; [8]) | interaction data at Target Concentration 10 (CHIP; [9]) | interaction data at Target Concentration 30 (CHIP; [10]) | interaction data at Target Concentration 100 (CHIP; [11]) | interaction data at Target Concentration 300 (CHIP; [12]) | interaction data at Target Concentration 1000 (CHIP; [13]) | interaction data at Target Concentration 1000 (CHIP; [14]) | other results
1 | DPAFWRCQFAAATCEHT (linker 7-14 via Phenylene(1,4-NHCOCH2)2 (inferred)) | 1 | 0 | 2 | 3 | 210 | 321 | 597 | 726 |  |  |  |  |  |  | 
2 | ICYNARLECE (linker 2-9 via Phenylene(1,4-NHCOCH2)2 (inferred)) |  |  |  |  |  |  |  |  | 1 | 2 | 13 | 16 | 21 | 20 | 
3 | DPAFVRCQFAAASCHTI (linker 7-14 via Phenylene(1,4-NHCOCH2)2 (inferred)) | 0 | 0 | 0 | 0 | 0 | 22 | 27 | 19 |  |  |  |  |  |  | 
4 | DPAFTACQFAAAMCDSS (linker 7-14 via Phenylene(1,4-NHCOCH2)2 (inferred)) | 0 | 0 | 0 | 0 | 0 | 3 | 8 | 5 |  |  |  |  |  |  | 
5 | DPAIIWCSQAASICTVD (linker 7-14 via Phenylene(1,4-NHCOCH2)2 (inferred)) | 0 | 0 | 0 | 0 | 19 | 15 | 23 | 24 |  |  |  |  |  |  | 
6 | PCWSAWLACEL (linker 2-9 via Phenylene(1,4-NHCOCH2)2 (inferred)) |  |  |  |  |  |  |  |  | 0 | 81 | 72 | 130 | 220 | 206 | 
7 | ICWAAWVSCS (linker 2-9 via Phenylene(1,4-NHCOCH2)2 (inferred)) |  |  |  |  |  |  |  |  | 0 | 0 | 0 | 25 | 42 | 17 | 
8 | DPASQWCQRAASICWID (DPASQWCQRAASICWID-NH2; linker 7-14 via Phenylene(1,4-NHCOCH2)2 (inferred)) | 0 | 0 | 0 | 0 | 0 | 15 | 18 | 8 |  |  |  |  |  |  | 
9 | PCWNAWMVCSV (linker 2-9 via Phenylene(1,4-NHCOCH2)2 (inferred)) |  |  |  |  |  |  |  |  | 2 | 44 | 334 | 474 | 690 | 691 | 
10 | DPAEYACYHAASICNVD (linker 7-14 via Phenylene(1,4-NHCOCH2)2 (inferred)) | 0 | 0 | 0 | 0 | 54 | 61 | 31 | 91 |  |  |  |  |  |  | 
11 | ICYTAWLECE (linker 2-9 via Phenylene(1,4-NHCOCH2)2 (inferred)) |  |  |  |  |  |  |  |  | 0 | 1 | 5 | 9 | 7 | 12 | 
12 | DPAFWSCQFAAATCSHL (linker 7-14 via Phenylene(1,4-NHCOCH2)2 (inferred)) | 0 | 0 | 0 | 0 | 4 | 6 | 11 | 8 |  |  |  |  |  |  | 
13 | PCFEAWVMCEI (linker 2-9 via Phenylene(1,4-NHCOCH2)2 (inferred)) |  |  |  |  |  |  |  |  | 4 | 83 | 121 | 285 | 375 | 297 | 
14 | ICYNAWFECE (linker 2-9 via Phenylene(1,4-NHCOCH2)2 (inferred)) |  |  |  |  |  |  |  |  | 0 | 2 | 9 | 11 | 18 | 14 | 
15 | PCWEAWLWCSM (linker 2-9 via Phenylene(1,4-NHCOCH2)2 (inferred)) |  |  |  |  |  |  |  |  | 0 | 0 | 4 | 124 | 194 | 145 | 
16 | DPALRTCLSAAVFCAVA |  |  |  |  |  |  |  |  |  |  |  |  |  |  | Phage library screen NGS readout, Target Concentration 10 (RNF31 UBA domain; RNF31 UBA domain cluster C46, target concentration 10): 0; Phage library screen NGS readout, Target Concentration 30 (RNF31 UBA domain; RNF31 UBA domain cluster C46, target concentration 30): 6; Phage library screen NGS readout, Target Concentration 100 (RNF31 UBA domain; RNF31 UBA domain cluster C46, target concentration 100): 10; Phage library screen NGS readout, Target Concentration 300 (RNF31 UBA domain; RNF31 UBA domain cluster C46, target concentration 300): 18; Phage library screen NGS readout, Target Concentration 1000 (RNF31 UBA domain; RNF31 UBA domain cluster C46, target concentration 1000, first column): 15; Phage library screen NGS readout, Target Concentration 1000 (RNF31 UBA domain; RNF31 UBA domain cluster C46, target concentration 1000, second column): 25; Phage library screen NGS readout, BLANK (RNF31 UBA domain; column 1 of 5): 0; Phage library screen NGS readout, BLANK (RNF31 UBA domain; column 2 of 5): 0; Phage library screen NGS readout, BLANK (RNF31 UBA domain; column 3 of 5): 1; Phage library screen NGS readout, BLANK (RNF31 UBA domain; column 4 of 5): 0; Phage library screen NGS readout, BLANK (RNF31 UBA domain; column 5 of 5): 1
17 | DPAQQHCSAAAAWCVVL |  |  |  |  |  |  |  |  |  |  |  |  |  |  | phage screen NGS read-out at Target Concentration 10 (RNF31 UBA domain): 0; phage screen NGS read-out at Target Concentration 30 (RNF31 UBA domain): 0; phage screen NGS read-out at Target Concentration 100 (RNF31 UBA domain): 1; phage screen NGS read-out at Target Concentration 300 (RNF31 UBA domain): 10
18 | DPADLICQLAAANCIYL |  |  |  |  |  |  |  |  |  |  |  |  |  |  | phage screen NGS read-out at Target Concentration 10 (RNF31 UBA domain): 0; phage screen NGS read-out at Target Concentration 30 (RNF31 UBA domain): 0; phage screen NGS read-out at Target Concentration 100 (RNF31 UBA domain): 2; phage screen NGS read-out at Target Concentration 300 (RNF31 UBA domain): 30
19 | DPATLVCTMAANNCIYR |  |  |  |  |  |  |  |  |  |  |  |  |  |  | phage screen NGS read-out at Target Concentration 10 (RNF31 UBA domain): 0; phage screen NGS read-out at Target Concentration 30 (RNF31 UBA domain): 0; phage screen NGS read-out at Target Concentration 100 (RNF31 UBA domain): 0; phage screen NGS read-out at Target Concentration 300 (RNF31 UBA domain): 1

From patent US20240376151A1, “STAPLED PEPTIDES AND METHODS THEREOF” (FOG PHARMACEUTICALS, INC., priority 2022, published 2024)
